# According to patent US20210347900A1 (AstraZeneca / MedImmune, published 2021):
# T1: Human SR-A1 (MSR) (human, UniProt P21757 77-451)
# T1 construct: Bought protein; also called Macrophage scavenger receptor types I and II
# T1 sequence (looked up): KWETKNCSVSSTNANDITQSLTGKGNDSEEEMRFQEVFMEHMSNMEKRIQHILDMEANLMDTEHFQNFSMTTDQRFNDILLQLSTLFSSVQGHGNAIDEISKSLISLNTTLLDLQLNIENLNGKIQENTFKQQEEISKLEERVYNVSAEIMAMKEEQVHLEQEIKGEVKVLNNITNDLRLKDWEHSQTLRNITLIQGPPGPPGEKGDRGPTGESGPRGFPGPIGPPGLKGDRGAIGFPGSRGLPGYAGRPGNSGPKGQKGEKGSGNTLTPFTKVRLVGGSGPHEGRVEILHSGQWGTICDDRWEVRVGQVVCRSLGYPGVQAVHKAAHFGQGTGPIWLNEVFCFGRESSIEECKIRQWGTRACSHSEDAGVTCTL
# T2: Human CLEC-4L (DC-SIGN) (human, UniProt Q9NNX6 62-404)
# T2 construct: Bought protein; also called C-type lectin domain family 4 member L
# T2 sequence (looked up): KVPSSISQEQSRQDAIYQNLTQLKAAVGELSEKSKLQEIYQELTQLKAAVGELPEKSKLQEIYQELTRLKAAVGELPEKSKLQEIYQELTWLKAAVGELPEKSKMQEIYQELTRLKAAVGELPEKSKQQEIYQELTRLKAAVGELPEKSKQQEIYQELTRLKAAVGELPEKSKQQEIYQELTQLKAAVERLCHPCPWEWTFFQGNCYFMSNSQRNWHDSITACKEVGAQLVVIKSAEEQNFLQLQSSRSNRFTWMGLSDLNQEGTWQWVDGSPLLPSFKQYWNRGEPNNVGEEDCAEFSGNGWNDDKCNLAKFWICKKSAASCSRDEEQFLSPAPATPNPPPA
# T3: Human CLEC-1A (human, UniProt Q8NC01 74-280, limits assumed)
# T3 construct: Bought protein; also called C-type lectin domain family 1 member A
# T3 sequence (looked up): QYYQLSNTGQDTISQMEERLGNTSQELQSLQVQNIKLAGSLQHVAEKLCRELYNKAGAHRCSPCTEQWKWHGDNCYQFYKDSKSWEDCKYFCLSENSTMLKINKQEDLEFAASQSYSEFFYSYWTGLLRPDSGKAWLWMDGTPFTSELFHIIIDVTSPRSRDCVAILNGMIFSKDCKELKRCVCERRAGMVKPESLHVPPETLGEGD
# T4: Human CLEC-7A (Dectin-1) (human, UniProt Q9BXN2-2 66-201, limits assumed)
# T4 construct: Bought protein; also called C-type lectin domain family 7 member A
# T4 sequence (looked up): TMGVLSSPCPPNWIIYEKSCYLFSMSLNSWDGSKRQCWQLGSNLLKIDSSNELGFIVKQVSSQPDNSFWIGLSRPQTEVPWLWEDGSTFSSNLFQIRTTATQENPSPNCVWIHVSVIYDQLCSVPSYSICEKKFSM
# Legend:
# [1] = biological target: T5, human LOX1 on cells (human LOX1 transfected CHO TREX cells) (human, UniProt P78380 1-273); assay: competition with DyLight 649 AGE-BSA on hLOX1 CHO TREX cells (FMAT); row label not given, assay assigned by block order of Table 5
# T5 construct: whole, on cells; also called hLOX1 transfected cells; hLOX1 CHO
# [2] = biological target: T5, human LOX1 on cells (human LOX1 …); assay: cell-based or functional assay
# [3] = biological target: T6, human LOX1 SNP K167N variant on cells (K167N SNP transfected CHO TREX cells) (human, UniProt P78380 1-273); assay: competition with DyLight 649 oxLDL on K167N hLOX1 CHO TREX cells (FMAT); row label not given, assay assigned by block order of Table 5
# T6 construct: whole, on cells; also called hLOX1 K167N; K167N hLOX1 CHO
# [4] = biological target: T7, recombinant human LOX1 (R&D Systems) (human, UniProt P78380 61-273); assay: competition with biotin CRP on plate-bound recombinant human LOX1, DELFIA
# [5] = biological target: T6, human LOX1 SNP K167N variant on cells …; assay: competition with DyLight 649 oxLDL on human LOX1 K167N CHO TREX cells, FMAT
# [6] = biological target: T5, human LOX1 on cells (human LOX1 …); assay: competition with DyLight 649 oxLDL on hLOX1 CHO TREX cells (FMAT); row label not given, assay assigned by block order of Table 5; first Mean/SD/n block of Table 2 (oxLDL/hLOX1 competition), n = 8
# [7] = biological target: T7, recombinant human LOX1 (R&D Systems); assay: competition with biotin CRP on immobilised recombinant hLOX1 (DELFIA); row label not given, assay assigned by block order of Table 5
# Human CLEC-1B (CLEC-2) = biological target: T8, Human CLEC-1B (CLEC-2) (human, UniProt Q9P126 58-229, limits assumed); assay: IgG binding ELISA on coated antigen, absorbance at 450 nm
# T8 construct: Bought protein; also called C-type lectin domain family 1 member B
# Human SR-A1 (MSR) = biological target: T1, Human SR-A1 (MSR); assay: as above
# Human CLEC-4L (DC-SIGN) = biological target: T2, Human CLEC-4L (DC-SIGN); assay: as above
# Human CLEC-1A = biological target: T3, Human CLEC-1A; assay: as above
# Human SR-B3 (CD36) = biological target: T9, Human SR-B3 (CD36) (human, UniProt P16671 30-439); assay: as above
# T9 construct: Bought protein; also called Platelet glycoprotein 4
# Human CLEC-7A (Dectin-1) = biological target: T4, Human CLEC-7A (Dectin-1); assay: as above
# [8] = biological target: T5, human LOX1 on cells (human LOX1 …); assay: competition with DyLight 649 AGE-BSA on human LOX1 CHO TREX cells, FMAT
# [9] = biological target: T5, human LOX1 on cells (human LOX1 …); assay: competition with DyLight 649 oxLDL on human LOX1 CHO TREX cells, FMAT
# [10] = biological target: T5, human LOX1 on cells (human LOX1 …); assay: saturation binding of DyLight 649 labelled antibody on hLOX1 CHO TREX cells (FMAT)
# [11] = biological target: T5, human LOX1 on cells (human LOX1 …); assay: saturation binding of DyLight 649 labelled antibody on hLOX1 CHO TREX cells (FMAT); DyLight 649 labeled antibody on hLOX1 CHO TREX cells
# [12] = biological target: T5, human LOX1 on cells (human LOX1 …); assay: competition with DyLight 649 oxLDL on hLOX1 CHO TREX cells (FMAT); row label not given, assay assigned by block order of Table 5
# T8 sequence (Q9P126 58-229 limits assumed): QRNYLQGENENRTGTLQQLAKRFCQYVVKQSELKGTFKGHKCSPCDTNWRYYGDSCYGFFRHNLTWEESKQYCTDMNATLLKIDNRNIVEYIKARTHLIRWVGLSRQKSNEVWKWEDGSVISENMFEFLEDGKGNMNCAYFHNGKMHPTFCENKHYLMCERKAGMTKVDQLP
# T9 sequence (P16671 30-439 limits assumed): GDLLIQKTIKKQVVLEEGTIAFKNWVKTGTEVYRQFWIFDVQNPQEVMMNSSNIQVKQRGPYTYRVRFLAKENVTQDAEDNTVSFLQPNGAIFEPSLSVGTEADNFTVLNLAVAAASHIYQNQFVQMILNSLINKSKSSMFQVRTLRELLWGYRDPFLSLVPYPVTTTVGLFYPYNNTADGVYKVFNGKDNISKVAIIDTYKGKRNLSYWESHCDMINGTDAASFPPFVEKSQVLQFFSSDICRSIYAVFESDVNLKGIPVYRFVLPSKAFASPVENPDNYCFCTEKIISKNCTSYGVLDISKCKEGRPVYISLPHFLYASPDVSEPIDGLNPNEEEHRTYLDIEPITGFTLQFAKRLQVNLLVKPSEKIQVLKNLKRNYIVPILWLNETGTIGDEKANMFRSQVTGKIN
Binder,IC50 [1] [pM],IC50 of inhibition of Cypher 5E oxLDL internalization in hLOX1 CHO TREX cells (row label not given; assay assigned by block order of Table 5) [2] [pM],IC50 of inhibition of oxLDL-dependent ROS generation in hLOX1 CHO TREX cells (row label not given; assay assigned by block order of Table 5) [2] [pM],IC50 [3] [pM],IC50 (read off the curve) [4] [pM],IC50 (read off the curve) [5] [pM],IC50 [6] [pM],IC50 [7] [pM],binding result (Human CLEC-1B (CLEC-2)),binding result (Human SR-A1 (MSR)),binding result (Human CLEC-4L (DC-SIGN)),binding result (Human CLEC-1A),binding result (Human SR-B3 (CD36)),binding result (Human CLEC-7A (Dectin-1)),IC50 (read off the curve) [8] [pM],IC50 (read off the curve) [9] [pM],Kd [10] [pM],Kd [11] [pM],IC50 [12] [pM]
"LOX696 IgG1-TM (antibody, V domains shown, Whole human IgG1-TM (L234F/L235E/P331S); Labelled with DyLight 649 in Assay 7; also called LOX10696-IgG1-TM; LOX10696 IgG1-TM) VH: QVQLVQSGGGLVQPGRSLRLSCAASGFTFDDYAMHWVRQAPGKGLEWVSGISWNSGSIGYADSVKGRFTISRDNAKNSLYLQMNSLRAEDTAVYYCAREGNWNYDAFDIWGRGTTVTVSS VL: QSALTQPASVSGSPGQSITISCTGTSSDVGGYNYVSWYQQHPGKAPKLMIYDVSNRPSGVSNRFSGSKSGNTASLTISGLQAEDEADYYCSSYTSSSTNWVFGGGTKLTVL",87.3,350,6220,246,~2000,~400,131,4690,no binding (tested: 0.2 µg/mL (single concentration)),no binding (tested: 0.2 µg/mL (single concentration)),no binding (tested: 0.2 µg/mL (single concentration)),no binding (tested: 0.2 µg/mL (single concentration)),no binding (tested: 0.2 µg/mL (single concentration)),no binding (tested: 0.2 µg/mL (single concentration)),~10,~300,3300,,
"LOX514 IgG1-TM (antibody, V domains shown, Whole human IgG1-TM (L234F/L235E/P331S); Labelled with DyLight 649 in Assay 7; also called LOX10514-IgG1-TM; LOX10514 IgG1-TM) VH: QVQLVQSGAEVKKPGASVKVSCKVSGYTLTELSMHWVRQAPGKGLEWMGGFDPEDGETIYAQKFQGRVTMTEDTSTDTAYMELSSLRSEDTAVYYCATPNGQQGKGVRGWDYYYGMDVWGRGTTVTVSS VL: QSVVTQPPSVSGAPGQRVTISCTGSSSNIGAGYDVHWYQQLPGTAPKLLIYGNSNRPSGVPDRFSGSKSGTSASLAITGLQAEDEADYYCQSYDSSLSGWVFGGGTKLTVL",207,772,8280,,~2000,,,1980,no binding (tested: 0.2 µg/mL (single concentration)),no binding (tested: 0.2 µg/mL (single concentration)),no binding (tested: 0.2 µg/mL (single concentration)),no binding (tested: 0.2 µg/mL (single concentration)),no binding (tested: 0.2 µg/mL (single concentration)),no binding (tested: 0.2 µg/mL (single concentration)),~100,,,800,642
